{
  "source": "paper PMC4660060",
  "about": "“The molecular architecture of the Dam1 kinetochore complex is defined by cross-linking based structural modelling” (Nature Communications, 2015)",
  "proteins": {"B1": {"name": "Dam1 complex (complex, yeast)", "chain 1": "MDSASKEETLEKLDQEITVNLQKIDSNLSFCFHKITQDIIPHVATYSEICERIMDSTEWLGTMFQETGLVNLQANAAAPVGNAPVKSLVSNNVGIFPTSAEEASRQSQTDNGPNEADSAVHVNRDVHSMFNNDSIDDFHTANITSTGQILKLPDSSDEDTGSEAVPSREQTDLTGEGHGGADDEQDESTIQRQSRKRKISLLLQQQYGSSSSMVPSPIVPNKMRKQLAHEEHINNDGDNDDENSNNIESSPLKQGHHHPKGQADDNNEGPDEEESTKEVPKPGTIIHFSTNR", "chain 2": "MMASTSNDEEKLISTTDKYFIEQRNIVLQEINETMNSILNGLNGLNISLESSIAVGREFQSVSDLWKTLYDGLESLSDEAPIDEQPTLSQSKTK", "chain 3": "MDSIDEQIAIKRKELQSLQKITSLTDGLKIQLTELNEQIKEMGMNADSVAQLMNNWDSIINNISQASLGLLQYAEGDYEIGPWKDSKKKESEQSNETGLEAQENDKNDEDNDEDEDLVPLPETMVRIRVDGNE", "chain 4": "MEHNLSPLQQEVLDKYKQLSLDLKALDETIKELNYSQHRQQHSQQETVSPDEILQEMRDIEVKIGLVGTLLKGSVYSLILQRKQEQESLGSNSK", "chain 5": "MENPHEQVQANILSRIIGNVKRLNESVAILNQELVTINNRNKNLEIMGAICDNYHSSVQFNLEATNNKKPPL", "chain 6": "MSEDKAKLGTTRSATEYRLSIGSAPTSRRSSMGESSSLMKFADQEGLTSSVGEYNENTIQQLLLPKIRELSDSIITLDSNFTRLNFIHESLADLNESLGSLLYGIMSNSWCVEFSQAPHDIQDDLIAIKQLKSLEDEKNNLVMELSNMERGIKRKKDEQGENDLAKASQNKQFNQPLFPSSQVRKYRSYDNRDKRKPSKIGNNLQVENEEDYEDDTSSEASFVLNPTNIGMSKSSQGHVTKTTRLNNNTNSKLRRKSILHTIRNSIASGADLPIENDNVVNLGDLHPNNRISLGSGAARVVNGPVTKNRNSMFSGRAERKPTESRHSVAKKTEKKINTRPPFR", "chain 7": "MSEQSQLDDSTIDKLIPQIFNEMRSNLNNTTNKFPKSTGGGASDNISANSNSIRSFNSITTQSLLKESESLDKITAMIKNVTAALKNNLPVYVNQVHEVCKSTNSILDSWINIHSQAGYIHKLMSDQTYLKLINDRLHNENVNTNDEDGSTLHNVIALKKKEILDLRQKLENRKGEKDAAPAKPPNQGLNPRYGVQSGRRPVPSAGISNNGRVRKTHVPASKRPSGIPRVTNRWTKPTASSSRKMFR", "chain 8": "MNANKQRQYNQLAHELRELQTNLQETTKQLDIMSKQCNENLVGQLGKVHGSWLIGSYIYYMEQMLGKTQ", "chain 9": "MTDALEQSVLALEGTVSVLKDSVESLKCANEPSTNLASTMLQTKRVFRLVPEYDVERSKLDLIEEVEPLVRTLGDKLRKSMGRMQRELDTLQQTYELNDLRLKKNISMDDDDALNSPDMGQEYEGRDADDVVMMASSTNEELEELKKLKEKKKQLENKLEILKQK", "chain 10": "MGESLDRCIDDINRAVDSMSTLYFKPPGIFHNAILQGASNKASIRKDITRLIKDCNHDEAYLLFKVNPEKQSVSRRDGKEGVFDYVIKRDTDMKRNRRLGRPGEKPIIHVPKEVYLNKDRLDLNNKRRRTATTSGGGLNGFIFDTDLIGSSVISNSSSGTFKALSAVFKDDPQIQRLLYALENGSVLMEEESNNQRRKTIFVEDFPTDLILKVMAEVTDLWPLTEFKQDYDQLYHNYEQLSSKLRFIKKEVLLQDDRLKTMSQYHPSSSHDVAKIIRKEKDEIRRLEMEIANLQE", "notes": "Ten different subunits; also called Dam1 kinetochore complex; free Dam1 complex; copies: + + + + + + + + +"}, "B2": {"name": "Dam1-GFP NP complex, phosphorylated by Ipl1 (Dam1p S257A, S265A, S292A, Ask1p S200A, Spc34p T199A; Dam1p S20 phosphorylated) (complex, yeast)", "chain 1": "B1 chain 1 with S200A", "chain 2": "B1 chain 2", "chain 3": "B1 chain 3", "chain 4": "B1 chain 4", "chain 5": "B1 chain 5", "chain 6": "B1 chain 6 with S257A, S265A, S292A", "chain 7": "B1 chain 7", "chain 8": "B1 chain 8", "chain 9": "B1 chain 9", "chain 10": "B1 chain 10 with T199A", "modifications": "phosphoserine at S20 (by Ipl1 kinase, nearly stoichiometric)", "notes": "GFP-tagged complex, detected by its GFP; In the tracer assay 20 pM of this complex met 2 nM of the same phosphorylated mutant complex without GFP; also called Dam1 NP phos; Dam1 NP; source: recombinant Dam1 complex (E. coli BL21 Rosetta, purified); phosphorylated with GST-Ipl1, GST-Sli15 (554-698) and 10 mM ATP, 90 min, 30 °C; copies: + + + + + + + + +"}},
  "key": {"[1]": {"biological_target": "the molecule itself", "experiment": "electron microscopy; cross-linked Dam1 complex on MTs examined by EM"}, "[2]": {"biological_target": "the molecule itself", "experiment": "TIRF microscopy, tracer residence time; GFP-tagged and unlabelled versions of the same mutant Dam1 complex mixed 1:100 to 2 nM in all (20 pM tracer), on immobilised MTs; BRB80, 0.8 mg/ml kappa-casein, 50 mM KCl, oxygen scavengers; concentrations that support oligomeric rings"}},
  "note": "Where a chain is given by its changes, count along the chain named. Names may count otherwise.",
  "data": [
    {"protein": "B1", "values": [
      {"measurement": "binding result", "setting": "[1]", "result": "binds"}
    ]},
    {"protein": "B2", "values": [
      {"measurement": "fold increase of the average residence time on MTs against single molecules", "setting": "[2]", "result": 2, "unit": "fold"}
    ]}
  ]
}
